# Data taken from PMC2467505.
# B1: AdhA (Pyrococcus furiosus; INS1A) (protein)
# chain: MAKVAVITGASRGIGEAIAKALAEDGYSLALGARSVDRLEKIAKELSEKHGVEVFYDYLDVSKPESVEEFARKTLAHFGDVDVVVANAGLGYFGRLEELTEEQFHEMIEVNLLGVWRTIKAFLNSLKRTGGVAIVVTSDVSARLLPYGGGYVATKWAARALVRTFQIENPDVRFFELRPGAVDTYFGGSKAGKPKEQGYLKPEEVAEAVKYLLRLPKDVRVEELMLRSIYQKPEY
# Legend:
# Assay in all cases: purified protein
# purified protein [1] = substrate: CC(=O)C=O; settings: reduction, 70°C, 0.1 M sodium phosphate pH 7.0, 0.35 mM NADPH
# purified protein [2] = substrate: CC(=O)CCC(C)=O; settings: reduction, 70°C, 0.1 M sodium phosphate pH 7.0, 0.35 mM NADPH
# purified protein [3] = substrate: CCCC(C)O; settings: oxidation, 70°C, 50 mM glycine pH 10.5, 0.35 mM NADP+
# purified protein [4] = substrate: C[C@H](O)CC[C@H](C)O; settings: oxidation, 70°C, 50 mM glycine pH 10.5, 0.35 mM NADP+
protein,measurement,setting,value
B1,Km,purified protein [1],1.2 ± 0.03 mM
same,Vmax,purified protein [1],10.4 µmol/min/mg
same,kcat/Km,purified protein [1],3800 M⁻¹ s⁻¹
same,Km,purified protein [2],56.4 ± 0.6 mM
same,Vmax,purified protein [2],1.9 µmol/min/mg
same,kcat/Km,purified protein [2],10 M⁻¹ s⁻¹
same,Km,purified protein [3],30.3 ± 0.4 mM
same,Vmax,purified protein [3],13.1 µmol/min/mg
same,kcat/Km,purified protein [3],100 M⁻¹ s⁻¹
same,Km,purified protein [4],5.4 ± 0.3 mM
same,Vmax,purified protein [4],12.8 µmol/min/mg
same,kcat/Km,purified protein [4],1000 M⁻¹ s⁻¹
